In article PMC7494997 (Scientific Reports, 2020):

B1: VSTB112 (antibody, V domains shown)
VH: QVQLVQSGAEVKKPGSSVKVSCKASGGTFSSYAISWVRQAPGQGLEWMGGIIPIFGTANYAQKFQGRVTITADESTSTAYMELSSLRSEDTAVYYCARSSYGWSYEFDYWGQGTLVTVSS
VL: DIQMTQSPSSLSASVGDRVTITCRASQSIDTRLNWYQQKPGKAPKLLIYSASSLQSGVPSRFSGSGSGTDFTLTISSLQPEDFATYYCQQSAYNPITFGQGTKVEIK
notes: human IgG1 heavy chain; human kappa light chain; full human IgG1; also called CI-8993 (Janssen/ImmuNext, Curis); source: Expi293 cells, purified (protein A)
B2: BMS767 (antibody, V domains shown)
VH: EVQLVESGGGLVQPGKSLRLSCAASGFTLEDYAMHWVRQAPGKGLEWVSGIDWNSENIGYADSVKGRFTISRDNAKNSLYLQMNSLRTEDTALYYCAKVPGYSGGWIDAEDDWGQGTMVTVSS
VL: not shown
notes: human IgG1 heavy chain; human kappa light chain; full human IgG1; also called BMS (Bristol Myers Squibb); source: Expi293 cells, purified (protein A)

Tests used:
yeast-displayed hVISTA [1] = target: T1, yeast-displayed hVISTA (human); assay: flow cytometry on cells; hVISTA (Phe33-Ala194) displayed on yeast, titrations of soluble antibody in PBS/BSA pH 7.4, 4 °C, 12 h; details: one partner purified
T1 construct: also called wild-type hVISTA; WT VISTA
T1 sequence (chain, as listed by the source): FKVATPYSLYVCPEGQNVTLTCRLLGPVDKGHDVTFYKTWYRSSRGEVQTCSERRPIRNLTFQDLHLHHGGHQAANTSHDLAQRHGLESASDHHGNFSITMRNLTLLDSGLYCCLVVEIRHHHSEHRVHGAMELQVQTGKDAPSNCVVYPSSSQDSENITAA

yeast-displayed hVISTA [2] = target: T1, yeast-displayed hVISTA; assay: flow cytometry on cells; hVISTA (Phe33-Ala194) displayed on yeast, titrations of soluble antibody in PBS/BSA pH 6.0, 4 °C, 12 h; details: one partner purified

| Binder | Kd (yeast-displayed hVISTA [1]) [nM] | Kd (yeast-displayed hVISTA [2]) [nM] |
| --- | --- | --- |
| B1 | ~3 | – |
| B2 | – | ~3 |
